# Results published in patent US20150216933A1, “HEMATOPOIETIC STEM CELL GROWTH FACTOR” (DUKE UNIVERSITY, priority 2008, published 2015).
# B1: PTN: Pleiotrophin, heparin binding growth factor; recombinant human PTN purchased from R&D systems (protein, UniProt P21246 33-168, looked up)
# Pleiotrophin: GKKEKPEKKVKKSDCGEWQWSVCVPTSGDCGLGTREGTRTGAECKQTMKTQRCKIPCNWKKQFGAECKYQFQAWGECDLNTALKTRTGSLKRALHNAECQKTVTISKPCGKLTKPKPQAESKKKKKEGKKQEKMLD
# Key:
# BM 34−KSL cells [1] = assay: Liquid suspension culture of BM 34−KSL cells with TSF with and without PTN x 7 days; type: cell-based, mouse
# Procedure: The above “loss of function” studies strongly implicated PTN as a secreted growth factor for HSCs.
# Purified BM 34^−KSL cells were isolated from C57Bl6 and B6.SJL mice (Jackson Laboratory, Bar Harbor, Me.) via flow cytometric cell sorting as previously described (Reya, et al, Nature 423:409-14 (2003), Salter et al, Blood 113:2104-7 (2009)). Liquid suspension cultures of BM 34^−KSL cells were supplemented with IMDM+10% FBS+1% pcn/strp+20 ng/ml thrombopoietin, 120 ng/ml SCF, and 50 ng/ml flt-3 ligand (“TSF” media) with and without recombinant (human) PTN (R&D Systems, Minneapolis, Minn.). Non-contact HUBEC cultures were conducted using 0.4 μm transwell inserts (Corning, Lowell Mass.) and supplemented with TSF media with and without goat anti-PTN or isotype control antibody (R&D). Phenotypic analysis for KSL cells was performed as previously described (Chute et al, Blood 109:2365-72 (2007), Salter et al, Blood 113:2104-7 (2009)).
# Since PTN has no known function in regulating hematopoiesis (Meng et al, Proc Natl Acad Sci USA 97: 2603-8 (2000)), an examination was first made as to whether BM stem/progenitor cells expressed one or more of the PTN receptors, receptor protein tyrosine phosphatase β/ζ (RPTP β/ζ), Syndecan or anaplastic lymphoma kinase (ALK) (Stoica et al, J Biol Chem 276:16772-9 (2001), Landgraf et al, J Biol Chem 283:25036-45 (2008)). The majority of BM MNCs and c-kit+sca-1^+lin^− (KSL) stem/progenitor cells expressed RPTP β/ζ (n=3, mean 87.0%±8.8 and 89%, respectively; FIG. 6A), whereas neither population expressed Syndecan or ALK (data not shown). In order to determine whether PTN might be a growth factor for HSCs, C57Bl6 BM CD34^−KSL cells, which are highly enriched for HSCs (Kiel et al, Nat Rev Immunol 8:290-301 (2008), Salter et al, Blood 113:2104-7 (2009)), were isolated by FACS and placed in liquid suspension culture with 20 ng/mL thrombopoietin, 120 ng/mL SCF and 50 ng/mL Flt-3 ligand (“TSF”) with or without 10, 100 or 1000 ng/mL PTN.
# BM 34−KSL cells [2] = assay: Competitive repopulating unit (CRU) assay of 34−KSL cell progeny cultured with TSF or TSF+PTN (Example 2); type: in vivo, mouse
# Procedure: BM 34^−KSL cells were either isolated for injection into recipient animals, or placed into cultures containing TSF alone, TSF+PTN, TSF+HUBECs+goat IgG, or TSF+HUBECs+goat anti-PTN. Recipient C57BL6 animals (CD45. 2^+) received 950 cGy total body irradiation (TBI) and were then injected via tail vein with limiting doses of BM 34^−KSL cells or their progeny following culture. 1×10^5 host BM MNCs were co-injected-into recipient mice as competitor cells. Multilineage hematologic reconstitution was measured in the PB by flow cytometry over time post-transplant as previously described (Reya, et al, Nature 423:409-14 (2003), Salter et al, Blood 113:2104-7 (2009)). Animals were considered to be engrafted if donor CD45. 1^+ cells were present at ≧1% in the PB (Chute et al, Blood 100:4433-9 (2002), Chute et al, Blood 105: 576-83 (2005), (Chute et al, Proc Natl Acad Sci USA 103, 11707-12 (2006)). CRU estimates were performed using L-Calc software (Stem Cell Technologies) as previously described (Reya, et al, Nature 423:409-14 (2003), Chute et al, Blood 109:2365-72 (2007), Chute et al, Proc Natl Acad Sci USA 103, 11707-12 (2006)).
# In order to determine if treatment with PTN could induce functional HSC expansion in culture, competitive repopulating unit (CRU) assays were performed using limiting dilutions of donor CD45. 1^+ BM 34^−KSL cells transplanted into lethally irradiated CD45. 2^+ C57Bl6 mice. Peripheral blood (PB) was collected from primary recipient mice at 4 weeks, 12 weeks and 24 weeks to assess the engraftment of donor CD45. 1^+ cells in the PB of recipient mice. […] 1^+ donor cell engraftment in the PB compared to mice transplanted with the identical dose of day 0 34^−KSL cells and mice transplanted with the progeny of 34^−KSL cells cultured with TSF alone (FIG. 6C, P=0.0008 and P=0.001, respectively). […] The PB engraftment of multilineage donor CD45. […] As expected, the CRU frequency within the progeny of 34^−KSL cells following culture with cytokines alone (TSF) was reduced to 1 in 58 cells (95% CI: 1/31 to 1/108). Conversely, the CRU frequency within the progeny of 34^−KSL cells cultured with TSF+PTN was 1 in 10 cells (95% CI: 1/5 to 1/20). Therefore, the addition of PTN induced a 4-fold increase in HSCs compared to input and a 6-fold increase compared to the progeny of TSF alone. […] 1^+ cell reconstitution at all time points through 24 weeks compared to mice transplanted with day 0 34^−KSL cells or their progeny following culture with TSF alone (FIG. 6F). This corresponded to an increased CRU frequency in the PTN-treated progeny compared to input 34^−KSL cells at all time points. […]
# [3] = 100 ng/mL PTN added to TSF, 7 days
# [4] = increasing doses (10, 100, 1000 ng/mL) of rPTN with TSF, Example 1
molecule,measurement,setting,value
B1,increase in total KSL stem/progenitor cells compared to TSF alone,BM 34−KSL cells [1]; [3],17.7 fold
same,increase in total cells compared to TSF alone,BM 34−KSL cells [1]; [3],6.4 fold
same,"total cells, % KSL cells and total KSL cells",BM 34−KSL cells [1]; addition of 10 to 100 ng/mL PTN to TSF,dose responsive increase
same,KSL cells in culture compared to the progeny of cytokines alone,BM 34−KSL cells [1]; [4],significant increase
same,total cells in culture compared to the progeny of cytokines alone,BM 34−KSL cells [1]; [4],significant increase
same,increase in HSCs compared to input,BM 34−KSL cells [2]; 12 week CRU,4 fold
same,increase in HSCs compared to the progeny of TSF alone,BM 34−KSL cells [2]; 12 week CRU,6 fold
same,increase in CD45.1+ donor cell engraftment in the PB,"BM 34−KSL cells [2]; 12 weeks post-transplant, vs day 0 34−KSL cells and progeny of TSF alone, 100 ng/mL PTN",> 10 fold
same,"CRU frequency, fold increased compared to input 34−KSL cells",BM 34−KSL cells [2]; 24 weeks post-transplant,4 fold
